Data reported in US20090074766A1, “Methods of inhibiting HIV-2 infection” (priority 2007, published 2009).
Where “and” joins values, the source holds several entries; their conditions need not be identical. Equal values may be shown once. Read-outs that look alike come from different tables or passages of the source.

Tests used:
[1] = biological target: T1, CCR5 (Homo sapiens, UniProt P51681); test: Competition binding: inhibition of 3H-UK-427,857 binding to CEM.NKR-CCR5 cells; conditions: read-out: EC50 for inhibition of 3H-UK-427,857 binding; 2 nM 3H-UK-427,857, pre-incubation with unlabeled compound
T1 construct: host or cells: CEM.NKR-CCR5 (transduced human T cell leukemia line)
From the text: Cells were washed and then analyzed for radioactivity by scintillation counting.
The cells were washed in PBSA and lysed with 0.5N HCl prior to scintillation counting using a Wallac1410 instrument.

[2] = system: R5 HIV-2 A2270; test: Inhibition of replication in PBMC cultures, RT activity readout: HIV-2 A2270; format: cell-based
Protocol: Viruses: All virus isolates were grown and titered exclusively in stimulated PBMC as described previously. […] The HIV-2 isolates used in this study have been previously described (Owen, S. M., Ellenberger, D., Rayfield, M., Wiktor, S., Michel, P., Grieco, M. H., Gao, F., Hahn, B. H., and Lai, R. B. 1998. Genetically Divergent Strains of Human Immunodeficiency Virus Type 2 Use Multiple Coreceptors for Entry. J Virol 72:5425-5432) and were obtained from the NIH AIDS Research and Reference Reagent Program.
PA14 (Lot # DF-021204) was produced for reagent use in the Research & Development laboratories of Progenics Pharmaceuticals Inc.
Inhibition of HIV-1 and HIV-2 replication in PBMC cultures: PBMC were isolated from 34 healthy blood donors with Ficoll-Hypaque (all media from Cellgro, Herndon, Va.) and depleted of CD8+ cells using RosetteSep CD8 depletion cocktail (StemCell Technologies) according to the manufacturer's instructions. Equal numbers of cells from each donor were then separately stimulated with 5 ug phytohemagglutinin/ml (Sigma, St. Louis, Mo.) or with surface-immobilized anti-CD3 antibody OKT3 in RPMI 1640 medium containing 10% fetal calf serum, 100 Units of interleukin-2/ml (NIH AIDS Research and Reference Reagent Program), glutamine, and antibiotics (PBMC culture medium) as previously described. After 72 hours, equal numbers of PBMC stimulated by one of these two methods from each donor were combined for use in infection assays as follows. […] The virus inoculum was adjusted to 400 to 2,000 times the TCID50 per ml in PBMC culture medium, and a 50-ul aliquot was added to each culture. The inhibitory doses refer to the concentrations of the agents present at this point in the culture, when virus, cells, and inhibitors were all present at their final concentrations. Reverse Transcriptase (RT) activity was measured on Day 7 post infection (pi) for HIV-1 and Day 10 pi for HIV-2 by the Reverse Transcriptase Assay, Colorimetric kit, #11 468 120 910, Roche (Switzerland) according to the manufacturer's instructions with the following exception: neither ultracentrifugation nor PEG precipitation of the culture supernatants was performed before viral lysis.
The inhibition data were analyzed using GraphPad Prism software (GraphPad Software, San Diego, Calif.). A 4-parameter logistic fit was used calculate the concentration of inhibitor that afforded a 50% and a 90% reduction in RT activity. […] The % inhibitions where best-fit curve reached a top plateau, also as calculated by GraphPad Prism software, are reported as well as maximum percent inhibition (MPI). […] Inhibition curves with a poor sigmoid fit (R^2<0.7) were excluded from data analysis.

[3] = human, in vivo
Protocol: Sera were diluted as appropriate and combined with L1.2-CCR5 cells, which are mouse pre-B lymphoma cells engineered to stably express human CCR5. […] Following incubation with test samples, cells were washed and combined with a FITC-labeled sheep antibody against human IgG4 (The Binding Site Limited, Cat. #AF009). Cells were washed again and analyzed by flow cytometry.
Serum was collected post-treatment, cryopreserved, and analyzed for PRO 140 levels. Peak serum concentrations ranged to […] at 0.1 mg/kg and […] at 0.5 mg/kg.

[4] = system: HIV-1 (CCR5-tropic virus); format: in vivo; conditions: for Mean log10 HIV RNA change: Day 10 post-treatment
From the text: The efficacy data collected during the study were changes in viral load and CD4 counts over time. The safety data collected during the study were serious adverse events (SAEs)/adverse events (AEs) and changes in laboratory parameters (hematology, chemistry), physical exam, viral tropism and ECGs over time.
(§1) All patients were screened prior to the study for the presence of virus that utilizes only CCR5 as the entry coreceptor., i.e., CCR5-tropic virus.
The primary efficacy endpoint was the reduction in plasma HIV RNA level as measured by the Roche Amplicor™ Assay. The primary efficacy endpoint is the maximum change from baseline in viral load, defined as HIV-1 copies/ml, as measured by the Roche Amplicor™ Assay.

[5] = Phase 1b clinical trial: safety, immunogenicity, RANTES, coreceptor tropism (Trofile); format: in vivo, human
From the text: as §1
Where no CXCR4-using clones are identified in a pre-dose sample from a subject, the on-treatment CXCR4-using virus can be identified as being phylogenetically very distant from the CCR5 tropic baseline virus; in such a case, the emergence of a pre-dose or pre-treatment CXCR4-using virus, i.e., one that is present at baseline, but is not detected, may likely explain the D/M tropism in the subject, as opposed to a tropism switch.

[6] = system: CCR5 chemokine signaling; test: RANTES-induced calcium mobilization in L1.2-CCR5 cells vs HIV-1JR-FL replication in PBMC (FIG. 4); format: cell-based, human; conditions: FIG. 4 legend, result in words
From the text: Similar results were obtained for MIP-1α and MIP-1β.

[7] = system: HIV-1; conditions: Olson et al., 1999; Trkola et al., 2001; cited from earlier work
[8] = Phase 1b clinical trial: pharmacokinetics (serum PRO 140 by ELISA); conditions: non-compartmental analysis, HIV-infected subjects
[9] = system: CCR5 lymphocytes; test: Phase 1b clinical trial: coating of CCR5 lymphocytes (flow cytometry ex vivo)

T1 sequence (P51681 whole entry): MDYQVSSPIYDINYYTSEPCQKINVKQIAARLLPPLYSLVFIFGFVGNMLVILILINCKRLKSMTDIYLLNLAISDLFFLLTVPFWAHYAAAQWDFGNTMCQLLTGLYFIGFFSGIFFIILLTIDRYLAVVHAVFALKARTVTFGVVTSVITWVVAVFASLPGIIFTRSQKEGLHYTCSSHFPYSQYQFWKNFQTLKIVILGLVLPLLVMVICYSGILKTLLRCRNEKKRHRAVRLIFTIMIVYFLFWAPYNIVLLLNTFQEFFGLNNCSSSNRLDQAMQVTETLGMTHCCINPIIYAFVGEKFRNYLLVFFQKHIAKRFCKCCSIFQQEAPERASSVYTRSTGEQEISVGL

B1: PRO 140: humanized IgG4,κ anti-CCR5 monoclonal antibody, humanized version of murine mAb PA14 (antibody, chains of the INN, looked up, V domains shown)
VH: EVQLVESGGGLVKPGGSLRLSCAASGYTFSNYWIGWVRQAPGKGLEWIGDIYPGGNYIRNNEKFKDKTTLSADTSKNTAYLQMNSLKTEDTAVYYCGSSFGSNYVFAWFTYWGQGTLVTVSS
VL: DIVMTQSPLSLPVTPGEPASISCRSSQRLLSSYGHTYLHWYLQKPGQSPQLLIYEVSNRFSGVPDRFSGSGSGTDFTLKISRVEAEDVGVYYCSQSTHVPLTFGQGTKVEIK
For B1, the EC50 [1] was 14 nM, the “EC50 (median)” value ([2]; HIV-2 A2270, R5) was 0.12 µg/mL and the “EC90 (median)” value ([2]; HIV-2 A2270, R5) was 3.5 µg/mL. The “MPI (maximum percent inhibition)” value ([2]; R5 HIV-2 A2270, individual assays (Source)) was 103% and 101% and 97%, the “MPI, Median” value ([2]; R5 HIV-2 A2270, median of assays) was 101% and the terminal serum half-life [3] was 240 to 288 h. The “individual viral load reductions ranging up to” value ([4]; 2.0 mg/kg and 5.0 mg/kg dose levels) was “up to 2.5 log10 and ≤ 99.7%”, the “Maximum decrease of viral load at any time” value ([4]; 5 mg/kg) was −1.8 log and the “Patients with <400 copies/mL (anytime)” value ([4]; 5 mg/kg) was 4/10. The “Patients with >1 log decrease (anytime)” value ([4]; 5 mg/kg) was 10/10, the “viral load decrease at day 22” value ([4]; 5 mg/kg) was −0.73 and the “time to suppression of mean viral load by 1.0 log10 (90%)” value ([4]; 5.0 mg/kg cohort) was “within four days”. For the same molecule, the “time viral load persisted at or below the 1.0 log10 level of reduction” value ([4]; 5.0 mg/kg cohort) was “two to three weeks”, the “Mean log10 HIV RNA change” value ([4]; 0.5 mg/kg) was −0.37 log10 and the “Mean log10 HIV RNA change” value ([4]; 2.0 mg/kg) was −1.04 log10. The “Mean log10 HIV RNA change” value ([4]; 5.0 mg/kg) was −1.70 log10, the “response rate (percentage of patients with a ≧1 log10 decrease in HIV RNA at any time)” value ([4]; highest dose cohort) was 100% and the “subjects with dual/mixed tropism result post-treatment” value ([5]; PRO 140 subjects (0.5 mg/kg group, day 8 only)) was 1/30. For the same molecule, the dose-limiting toxicity ([5]; Phase 1b) was “No dose-limiting toxicity or obvious pattern of toxicity”, the “plasma RANTES (CCL5) chemokine levels” value ([5]; Phase 1b) was “No change in plasma RANTES (CCL5) chemokine levels” and the “treatment related SAEs” value ([5]; Phase 1b) was “No treatment related SAEs”. For the same molecule, the tolerability ([5]; all study groups (0.5, 2.0, 5.0 mg/kg)) was “well-tolerated”, the “effect on HIV-1 vs chemokine signaling” value [6] was “blocks HIV-1 but not chemokine signaling” and the IC90 [7] was “about 4 μg/ml”. For the same molecule, the Terminal half life [8] was “approximately 4 d” and the “depletion of CCR5+ lymphocytes” value [9] was “No depletion of CCR5+ lymphocytes”.
